The test has as its target acetylated BSA (AcBSA) (bovine (from the name BSA), UniProt P02769 25-607, acetylated (lysyl acetylation); extent not stated). The experiment in a line: SPR.

As usually defined, the Kd is the free concentration of one partner at which half of the binding sites on the other are occupied at equilibrium, for simple one-to-one binding. Higher therefore signals lower affinity.

Sequence of acetylated BSA (AcBSA) (P02769 25-607): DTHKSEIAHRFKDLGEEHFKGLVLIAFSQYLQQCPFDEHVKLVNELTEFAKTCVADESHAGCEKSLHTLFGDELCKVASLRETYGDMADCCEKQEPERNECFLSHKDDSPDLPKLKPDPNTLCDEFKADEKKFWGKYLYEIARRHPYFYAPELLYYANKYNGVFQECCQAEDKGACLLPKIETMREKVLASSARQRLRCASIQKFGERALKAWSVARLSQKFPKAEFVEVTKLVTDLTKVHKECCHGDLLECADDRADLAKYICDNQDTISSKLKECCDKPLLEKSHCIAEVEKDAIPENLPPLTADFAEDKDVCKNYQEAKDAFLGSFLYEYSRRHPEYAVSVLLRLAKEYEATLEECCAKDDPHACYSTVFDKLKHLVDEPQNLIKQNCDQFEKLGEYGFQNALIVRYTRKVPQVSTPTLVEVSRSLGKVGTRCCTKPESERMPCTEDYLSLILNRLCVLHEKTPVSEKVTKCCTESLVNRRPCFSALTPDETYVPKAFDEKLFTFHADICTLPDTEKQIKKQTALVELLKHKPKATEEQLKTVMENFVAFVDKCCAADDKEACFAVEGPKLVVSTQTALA

B1: SR‐F1(20‐421), SR‐F1 ectodomain (domain or fragment)
chain: SELDPKGQHVCVASSPSAELQCCAGWRQKDQECTIPICEGPDACQKDEVCVKPGLCRCKPGFFGAHCSSRCPGQYWGPDCRESCPCHPHGQCEPATGACQCQADRWGARCEFPCACGPHGRCDPATGVCHCEPGWWSSTCRRPCQCNTAAARCEQATGACVCKPGWWGRRCSFRCNCHGSPCEQDSGRCACRPGWWGPECQQQCECVRGRCSAASGECTCPPGFRGARCELPCPAGSHGVQCAHSCGRCKHNEPCSPDTGSCESCEPGWNGTQCQQPCLPGTFGESCEQQCPHCRHGEACEPDTGHCQRCDPGWLGPRCEDPCPTGTFGEDCGSTCPTCVQGSCDTVTGDCVCSAGYWGPSCNASCPAGFHGNNCSVPCECPEGLCHPVSGSCQPGSGSRDT
B1 had a Kd of 917 nM.

The values above are taken from publication PMC8487046 (2021).
